Laboratory results: patent US7407939B2, “Protein kinase inhibitors comprising ATP mimetics conjugated to peptides or peptidomimetics” (CureGenics Ltd., priority 2001, dated 2008)
Where two headings read alike, the source gives them in different places. *1 amine or outer side, *2 acyl side, *3 side chain or, on linkers, in order; H or OH if unused. Where a SMILES comes first, the peptide text is derived from it. Where no end group is shown, it is not given here. Side-chain parts run from the residue outwards. [ ]: non-standard residue; d: D form. The star is where a group is joined. ξ: configuration not given here. SO2‑IQ = 5-aminoethylsulfoneamide isoquinoline, O=S(=O)(NCCN*)c1cccc2cnccc12; X1 = 5‑aminoethylsulfonamide isoquinoline, O=S(=O)(NCCN*)c1cccc2cnccc12; Isoquinoline5sulfonyl = O=S(=O)(c1cccc2cnccc12)*; Ethylenediamine = C(CN[*:2])N[*:1]; hLeu = CC(C)CC[C@H](N)C(=O)O; Nle = CCCC[C@H](N)C(=O)O; Orn = NCCC[C@H](N)C(=O)O; Dab = NCC[C@H](N)C(=O)O; Nva = CCC[C@H](N)C(=O)O; ξE = NC(CCC(=O)O)C(=O)O; Abu = CC[C@H](N)C(=O)O; Dap = NC[C@H](N)C(=O)O; Ph2 = not defined here; GlyNH2 = aminoglycine; βAla = NCCC(=O)O

Target: T1, PKB (Homo sapiens, UniProt P31749)
T1 construct: His; HA; made in house
Experiment: PKB in vitro kinase activity assay (soluble His-HA-PKB / SPA bead screening)
Assay type: biochemical
Set-up: % Inhibition PKB I / % Inhibition PKB II: concentration or dose not given beside the values
Details: for PKB-kinase (spa) Assay 1, % inhibition of kinase activity / PKB-kinase (spa) Assay 2, % inhibition of kinase activity: 1 μM compound concentration

[1] = chimeric PTR compounds (peptide conjugated to isoquinoline small molecule), read-out: PKB IC50
[2] = plate screening, peptide moiety alone

T1 sequence (P31749 whole entry, species assumed): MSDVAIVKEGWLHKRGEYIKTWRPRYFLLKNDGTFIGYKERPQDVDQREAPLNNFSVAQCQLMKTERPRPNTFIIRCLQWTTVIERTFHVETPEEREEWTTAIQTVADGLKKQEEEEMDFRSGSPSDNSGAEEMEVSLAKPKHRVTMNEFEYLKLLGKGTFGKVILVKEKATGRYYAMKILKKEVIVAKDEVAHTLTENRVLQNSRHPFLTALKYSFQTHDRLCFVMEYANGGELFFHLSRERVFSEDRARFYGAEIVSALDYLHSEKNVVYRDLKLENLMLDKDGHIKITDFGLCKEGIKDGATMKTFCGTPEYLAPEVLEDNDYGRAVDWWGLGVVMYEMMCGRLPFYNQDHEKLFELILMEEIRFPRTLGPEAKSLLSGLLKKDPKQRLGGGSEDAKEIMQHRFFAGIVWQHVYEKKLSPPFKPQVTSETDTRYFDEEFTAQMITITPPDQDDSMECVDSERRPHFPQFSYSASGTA

Row | PKB-kinase (spa) Assay 1, % inhibition of kinase activity [%] | PKB-kinase (spa) Assay 2, % inhibition of kinase activity [%] | Compound | also measured
1 | 13 | 35 | 60020-80: Arg-Pro-Arg-Orn-Glu(bAla-5-aminoethylsulfonamide isoquinoline)-Nva-Hol (RPR[Orn]E([βAla-X1])[Nva][hLeu]) | 
2 | 19 | 39 | 60020-29: Arg-Pro-Arg-Nle-Glu(5-aminoethylsulfonamide isoquinoline)-Ala-Phe (RPR[Nle]E(X1)AF) | 
3 | 10 | 51 | 60020-84: Arg-Pro-Arg-Abu-Glu(bAla-5-aminoethylsulfonamide isoquinoline)-Orn-Hol (RPR[Abu]E([βAla-X1])[Orn][hLeu]) | 
4 | 31 | 52 | 60020-72: Arg-Pro-Arg-Dap-Glu(bAla-5-aminoethylsulfonamide isoquinoline)-Nva-Hol (RPR[Dap]E([βAla-X1])[Nva][hLeu]) | 
5 |  |  | RPRRSSF-NH2 (C-terminus assumed) [AR 60003-53, Arg-Pro-Arg-Arg-Ser-Ser-Phe] | IC50 (Table 3, linear 7-mer peptides, read-out: Activity PKB): 3 µM
6 | 21 | 24 | 60020-78: Arg-Pro-Arg-Orn-Glu(bAla-5-aminoethylsulfonamide isoquinoline)-Ala-Hol (RPR[Orn]E([βAla-X1])A[hLeu]) | 
7 | 9 | 31 | 60020-94: Arg-Pro-Arg-Nle-Glu(bAla-5-aminoethylsulfonamide isoquinoline)-Ala-Hol (RPR[Nle]E([βAla-X1])A[hLeu]) | 
8 |  |  | CCCC[C@H](NC(=O)[C@H](CO)NC(=O)[C@H](CO)NC(=O)[C@H](CCCC)NC(=O)[C@H](CCCNC(=N)N)NC(=O)[C@@H]1CCCN1C(=O)[C@@H](N)CCCNC(=N)N)C(N)=O [AR 60003-62, Arg-Pro-Arg-Nle-Ser-Ser-Nle] (H-RPR[Nle]SS[Nle]-NH2) | inhibition at 1 µM (at 1 μM, Table 3, read-out: inhibition (PKB)): 70%
9 | 20 | 13 | 60020-53: Arg-Pro-Arg-Abu-Glu(Gly-5-aminoethylsulfonamide isoquinoline)-Ala-Phe (RPR[Abu]E([Gly-X1])AF) | 
10 | 34 | 53 | 60020-4: Arg-Pro-Arg-Dap-Glu(5-aminoethylsulfonamide isoquinoline)-Orn-Hol (RPR[Dap]E(X1)[Orn][hLeu]) | 
11 | 29 | 38 | 60020-62: Arg-Pro-Arg-Nle-Glu(Gly-5-aminoethylsulfonamide isoquinoline)-Ala-Hol (RPR[Nle]E([Gly-X1])A[hLeu]) | 
12 |  |  | 6106 (RPRT[Dap](SO2‑IQ)SF) [compound 6106] | IC50 [1]: 10 µM
13 | 36 | 57 | 60020-69: Arg-Pro-Arg-Dap-Glu(bAla-5-aminoethylsulfonamide isoquinoline)-Ala-Phe (RPR[Dap]E([βAla-X1])AF) | 
14 | 32 | 46 | 60020-71: Arg-Pro-Arg-Dap-Glu(bAla-5-aminoethylsulfonamide isoquinoline)-Nva-Phe (RPR[Dap]E([βAla-X1])[Nva]F) | 
15 | 38 | 38 | 60020-76: Arg-Pro-Arg-Orn-Glu(bAla-5-aminoethylsulfonamide isoquinoline)-Orn-Hol (RPR[Orn]E([βAla-X1])[Orn][hLeu]) | 
16 | 32 | 14 | 60020-6: Arg-Pro-Arg-Dap-Glu(5-aminoethylsulfonamide isoquinoline)-Ala-Hol (RPR[Dap]E(X1)A[hLeu]) | 
17 | 36 | 29 | 60020-13: Arg-Pro-Arg-Orn-Glu(5-aminoethylsulfonamide isoquinoline)-Ala-Phe (RPR[Orn]E(X1)AF) | 
18 | 37 | 57 | 60020-46: Arg-Pro-Arg-Orn-Glu(Gly-5-aminoethylsulfonamide isoquinoline)-Ala-Hol (RPR[Orn]E([Gly-X1])A[hLeu]) | 
19 | −9 | 56 | 60020-82: Arg-Pro-Arg-Abu-Glu(bAla-5-aminoethylsulfonamide isoquinoline)-Dab-Hol (RPR[Abu]E([βAla-X1])[Dab][hLeu]) | 
20 | 17 | 16 | 60020-39: Arg-Pro-Arg-Dap-Glu(Gly-5-aminoethylsulfonamide isoquinoline)-Nva-Phe (RPR[Dap]E([Gly-X1])[Nva]F) | 

Row | PKB-kinase (spa) Assay 1, % inhibition of kinase activity [%] | PKB-kinase (spa) Assay 2, % inhibition of kinase activity [%] | Compound | also measured
21 |  |  | CCC[C@H](NC(=O)[C@H](CCCNC(=N)N)NC(=O)[C@@H]1CCCN1C(=O)[C@@H](N)CCCNC(=N)N)C(=O)N[C@@H](CCC(=O)NCCNS(=O)(=O)c1cccc2cnccc12)C(=O)N[C@@H](C)C(=O)N[C@@H](CCC(C)C)C(N)=O [compound 6150] (H-RPR[Nva]E([Ethylenediamine-Isoquinoline5sulfonyl])A[hLeu]-NH2; N-terminus assumed) | IC50 [1]: 25 µM
22 | 32 | 26 | 60020-19: Arg-Pro-Arg-Abu-Glu(5-aminoethylsulfonamide isoquinoline)-Orn-Phe (RPR[Abu]E(X1)[Orn]F) | 
23 |  |  | C[C@@H](O)[C@H](NC(=O)[C@H](CCCNC(=N)N)NC(=O)[C@@H]1CCCN1C(=O)[C@@H](N)CCCNC(=N)N)C(=O)N[C@@H](CO)C(=O)NC(CCC(=O)NCCNS(=O)(=O)c1cccc2cnccc12)C(=O)N[C@@H](Cc1ccccc1)C(N)=O (stereo partly drawn) [PTR 6014] (H-RPRTS[ξE]([Ethylenediamine-Isoquinoline5sulfonyl])F-NH2) | IC50 (Table 2, chimeric compounds, read-out: Activity PKB): 25 µM
24 | 29 | 53 | 60020-45: Arg-Pro-Arg-Orn-Glu(Gly-5-aminoethylsulfonamide isoquinoline)-Ala-Phe (RPR[Orn]E([Gly-X1])AF) | 
25 |  |  | 60006-11B (RPR[Nva][GlyNH2][Dap][Ph2]; reading uncertain) [Compound 60006-11B] | % Inhibition PKB I [2]: 51%; % Inhibition PKB II (plate screening, peptide moiety alone, PKB II): 44%
26 |  |  | RPRRSSR [AR 60003-64, Arg-Pro-Arg-Arg-Ser-Ser-Arg] | Activity PKB (Table 3, linear 7-mer peptides): Not active
27 | 26 | 31 | 60020-14: Arg-Pro-Arg-Orn-Glu(5-aminoethylsulfonamide isoquinoline)-Ala-Hol (RPR[Orn]E(X1)A[hLeu]) | 
28 | 63 | 25 | 60020-27: Arg-Pro-Arg-Nle-Glu(5-aminoethylsulfonamide isoquinoline)-Orn-Phe (RPR[Nle]E(X1)[Orn]F) | 
29 | 52 | 63 | 60020-66: Arg-Pro-Arg-Dap-Glu(bAla-5-aminoethylsulfonamide isoquinoline)-Dab-Hol (RPR[Dap]E([βAla-X1])[Dab][hLeu]) | 
30 | 23 | 35 | 60020-75: Arg-Pro-Arg-Orn-Glu(bAla-5-aminoethylsulfonamide isoquinoline)-Orn-Phe (RPR[Orn]E([βAla-X1])[Orn]F) | 
31 | 29 | 40 | 60020-61: Arg-Pro-Arg-Nle-Glu(Gly-5-aminoethylsulfonamide isoquinoline)-Ala-Phe (RPR[Nle]E([Gly-X1])AF) | 
32 | 16 | 35 | 60020-73: Arg-Pro-Arg-Orn-Glu(bAla-5-aminoethylsulfonamide isoquinoline)-Dab-Phe (RPR[Orn]E([βAla-X1])[Dab]F) | 
33 | −50 | 5 | 60020-87: Arg-Pro-Arg-Abu-Glu(bAla-5-aminoethylsulfonamide isoquinoline)-Nva-Phe (RPR[Abu]E([βAla-X1])[Nva]F) | 
34 | 13 | 15 | 60020-77: Arg-Pro-Arg-Orn-Glu(bAla-5-aminoethylsulfonamide isoquinoline)-Ala-Phe (RPR[Orn]E([βAla-X1])AF) | 
35 | 17 | 18 | 60020-26: Arg-Pro-Arg-Nle-Glu(5-aminoethylsulfonamide isoquinoline)-Dab-Hol (RPR[Nle]E(X1)[Dab][hLeu]) | 
36 |  |  | RPRTSDF [TY 60002-18, Arg-Pro-Arg-Thr-Ser-Asp-Phe] | Activity PKB (Table 3, linear 7-mer peptides): Not active
37 | −2 | 6 | 60020-21: Arg-Pro-Arg-Abu-Glu(5-aminoethylsulfonamide isoquinoline)-Ala-Phe (RPR[Abu]E(X1)AF) | 
38 | 17 | 19 | 60020-63: Arg-Pro-Arg-Nle-Glu(Gly-5-aminoethylsulfonamide isoquinoline)-Nva-Phe (RPR[Nle]E([Gly-X1])[Nva]F) | 
39 | 23 | 3 | 60020-12: Arg-Pro-Arg-Orn-Glu(5-aminoethylsulfonamide isoquinoline)-Orn-Hol (RPR[Orn]E(X1)[Orn][hLeu]) | 
40 |  |  | 60002-50 (RPRTSA[hLeu]) [Compound 60002-50] | % Inhibition PKB I [2]: 62%
